Measurements taken from the nanobody polyreactivity screen of Harvey et al. (2022).

Test: yeast display, Sf9 membrane polyspecificity reagent, FACS + sequencing; frameworks hold sequencing errors
In short: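 Galactose induction of a Saccharomyces cerevisiae BJ5465 synthetic nanobody display library ran 36–48 hours. The cells were then stained for 1 hour at 4 °C with 10% biotinylated, detergent-solubilized Sf9 membrane reagent, pulled down on streptavidin microbeads and FACS-sorted into low and high (top ~1%) gates on expression and reagent-binding fluorescence. Labels for polyreactivity follow the gate of origin.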

Sequence	polyreactivity (PSR sort gate)
QVQLVESGGGLVQAGGSLRLSCAASGRIYGIYAMGWYRQAPGKERDLVARITGGGSTNYADSVKGRFTISRDNAKYTVYLQMNSLKPEDTAVYYCAATVRRIVGNITRYDYWGQGTQVTVSS	low polyreactivity
QVQLVESGGGLVQAGGSLRLSCAASGRIYIGNAMGWYRQAPGKERELVAAISKRGGSTYYADSVKGRFTISRDNAKNTVYLQMKSLKAEDTAVYYCIKESLYREFDYLGQGTQVTVSS	low polyreactivity
QVQLVESGGGLVQAGGSLRLSCAASGRIYNYYAMGWYIPAPGKERELVAAISSSGGRTYYADSVKGRFTISRDNAKNTVYLQMNSLKPEDTAVYYCAAYDSLRYSTYDYWGQGTQVTVSS	high polyreactivity
QVQLVESGGGLVQAGGSLRLSCAASGRIYPAYAMGWSRQAPGKERELVASIRRGGITYADSVKGRFTISRDNAKNTVYLQMNSLKPEDTAVYYCNADYRGWGYHMDYWGQGTQVTVSS	low polyreactivity
QVQLVESGGGLVQAGGSLRLSCAASGRIYPYYDMGWYRQAPGKERELVAAITSGTGTYYADSGKGRVTLSRDNAKTTVYFQMYSLKPEDTAVYYCNARRYLRGYWGQGTQVTLSS	low polyreactivity
QVQLVESGGGLVQAGGSLRLSCAASGRIYRGYAMGWYRQAPRKERELFARITSGGRTYYADSVKGRFTISRDNAMNTVYLQMISLKPEDTAVYYCATVGGGYDERHNYWGQWTQVTVSS	high polyreactivity
QVQLVESGGGLVQAGGSLRLSCAASGRIYRYYAMGWYRQAPGKEREFVAAISYRGASTFYADSVKGRFTISRDNAKNTVYLQMNSLKPEDTAVYYCATDTRIRYQGNPYDYWGQGTQVTVSS	high polyreactivity
QVQLVESGGGLVQAGGSLRLSCAASGRIYSYYAMGWYRQAPGKERELVAGIRSGGSTNYADSVKGRFTISRDNAKNTVYLQMNSLKPEDTAVYYCAARWTRWTSKRFEYWGQGTQVTVSS	high polyreactivity
QVQLVESGGGLVQAGGSLRLSCAASGRIYTHYAMGWYRQAPGKERELVAAISYRGGSTYYADSVKGRFTISRDNAKNTVYLQMNRLKPEATAVYYCNKYRFVYSLDDYWGQGIQVTVSS	high polyreactivity
QVQLVESGGGLVQAGGSLRLSCAASGRIYVIYGMGWYRQAPGKERELVATISWSGSSTSYADSVKGRFTISRDNAKNTVYLQMNSLKHEDTAVYYCNAPVQSETFDYWGQGTQVTVSS	high polyreactivity
QVQLVESGGGLVQAGGSLRLSCAASGRIYVNAMGWYRQAPGKERELVAAIRSGGSTNYADSVKGRFTISRDNAKNTVYLQMNSLKPEDTAVYYCNARRRDYRHWYDYWGQGTQVTVSS	high polyreactivity
QVQLVESGGGLVQAGGSLRLSCAASGRIYWNDMGWYRQAPGKERELVAAISWGGDRTYYADSVKGRFTISRDNAKNSFYLQMNSLKPEDTAVYYFNAPGYLTYDHSYDYWGQGTQVTVSS	low polyreactivity
QVQLVESGGGLVQAGGSLRLSCAASGRIYWNTMGWYIQAPGKERELVASISTGGGRTYYADSVKGRFTISRDNAKNTVYLQMNSLKPEDTAVYYCAVRSYGHGFDYWGQGTQVTVSS	high polyreactivity
QVQLVESGGGLVQAGGSLRLSCAASGRIYWNTMGWYRQAPWKEREMVASISTGCGRTYYADSVKGRFTISRDNAKNTVYLQMHSLKPEDTSVYYCNAVRTVWYRYEYGYWGQGTQVTVSS	high polyreactivity
QVQLVESGGGLVQAGGSLRLSCAASGRIYWSYDMGWNRQAPVKERELVASITSDGSTNYADSVKGRFTISRDNAKNTVYLQMNSLKPEDTAVYYCAARPYKYDPFAQGDGGKYDYWGQGTQVTVSS	low polyreactivity
QVQLVESGGGLVQAGGSLRLSCAASGRIYYQYAMGWYRQAPGKERELVAAITRGGNTYYADSVKGRFTISRDNAKNTVYLQMNSLKPEDTAVYYCNARWHTTGYRYDYWGQGTQVTVSS	high polyreactivity
QVQLVESGGGLVQAGGSLRLSCAASGRLFYSYAMGWYRQAPGKERELVAAIGRGGGTTYADSVKGRFTISRDNAKNTVYLQMNSLKPEDTAVYYCAADWHSTPRHTMDYWGQGTQVTVSS	low polyreactivity
QVQLVESGGGLVQAGGSLRLSCAASGRNFAGYAMLWYRQAPGKERELVATISSGGSTYYADSVKGRFTISRDNAKNTVYLQKNSLKPEDTAVYYCAAEYGTRQYSSYYKLFNYWGQGTQVTVSS	low polyreactivity
QVQLVESGGGLVQAGGSLRLSCAASGRNFCVYAMGWYRHDHGKERELVAAISYDDGDTFYADSVKGRFTISRDNAKNTVYLQMNSLKPDDTAVYYCDAEGYSYIQSDLDYCGQGTQVTVSS	high polyreactivity
QVQLVESGGGLVQAGGSLRLSCAASGRNFGRNGMGWYRQAPGKERELVAAISIGDSTTYADSVKGRFTISRDNAKNTVYLQMNSLKPEDTAVFYCAAELERYPVWEYRGKYDYWGQGTQVTVSS	low polyreactivity
QVQLVESGGGLVQAGGSLRLSCAASGRNFLPNAMGWSRPAPGKERELVAAITSGGGSTYYADSVKGRFTISRDKAKNTVYLQMNSLKPEDTAVYYCAKQPYRGKYYYWGQGTQVTVSS	high polyreactivity

Sequence	polyreactivity (PSR sort gate)
QVQLVESGGGLVQAGGSLRLSCAASGRNFPGYARGWYRQAPGKEGELVAGINWSSGSTYYADSVKGRFTISRDNAKNTVYLQMNSLKPEDTAVYYCNALGYWRSTVHYVVGEVDYWGQGTQVTVSS	low polyreactivity
QVQLVESGGGLVQAGGSLRLSCAASGRNFPYYAMGWYRQAPGKERELVAAISSSGGRTYYADSVKGRFTISRDNAKNTVYLQMNSLIPEDTAVYYCNVDAWYPYQGFLVGYYYWGQGTQVTVSS	low polyreactivity
QVQLVESGGGLVQAGGSLRLSCAASGRNFRRYALGLYRQAPGKERELVAAISSGGSTYYADSVKGRFTISRDNAKNTVYLQMNSLKPEDTAVYYCNAKVGAYLNYGYWGQGTQVTVSS	low polyreactivity
QVQLVESGGGLVQAGGSLRLSCAASGRNFSFYAMGWYRQAPGQERELVAAITYTDGSTYADSVKGRFTISRDNAKNTVYLQMNSLKPDDTAVYYFATRYRWTPYDYWGQGTQVTVSS	low polyreactivity
QVQLVESGGGLVQAGGSLRLSCAASGRNFSNYAMGWYRQAPGKERELVAAIRATGTTTYYADSVKGRFTISRDNAKNTVYLQMNSLKPDDTAVYYCAARGSRYRSSGYDYWGQGTQVTVSS	high polyreactivity
QVQLVESGGGLVQAGGSLRLSCAASGRNFWLNAMGWYRPEPGKERELVATISRGGSTNYADSVKGRFTISRDNAKNTVYLQMNSLKPEDTAVYYCAARPYSYYWNSELDYWGQGTQVTVSS	high polyreactivity
QVQLVESGGGLVQAGGSLRLSCAASGRNFYGYAMGWYRQAPGKERELVAAISWSGGSTYYADSVKGRFTISRDNAKNTVYLQMNSLKPEDTAVYYCARRYRGGYKYDYWGQGTQVTVSS	high polyreactivity
QVQLVESGGGLVQAGGSLRLSCAASGRNFYSYVMGWYRQAPGKERELVASIRVSGGSTYYADSVKGRFTISRDNAKNTVYLQMNSLKPEDTAVYYCAAGYRSGVSLWRFYAYYWGQGTQVTVSS	high polyreactivity
QVQLVESGGGLVQAGGSLRLSCAASGRNFYYYAMGWYRQAPGKERELVAAISASGGSTYYADSVKGRFTISRDNAKNTVYLQMNSLKPEDTAVYYCAARATTSQYNYYYWGQGTQVTVSS	high polyreactivity
QVQLVESGGGLVQAGGSLRLSCAASGRPFNRNAMGWYRTAPGKERELVASITSRGGSTYYADSVKGRFTISRDNAKNTVYLQMNSLKTEDTAVYYCAGYTRNGDYDYWGQGTQVTFSS	high polyreactivity
QVQLVESGGGLVQAGGSLRLSCAASGRPSSLMNMGWYRQAPGKERELVAAISTSGGSTYYADSVKGRFTISRDNAKNTVYLQMNSLKPEDTAVYYCAATIGRRSYNQMYYWGQGTQVTVSS	high polyreactivity
QVQLVESGGGLVQAGGSLRLSCAASGRSFESYAMGWYRQAPGKERELVAAITWSGGDTYYADSVKGRFTISRDNAKNTVYLQMNSLKPEDTAVYYCAKEQGLYSVSPYDYWGQGTQVTVSS	low polyreactivity
QVQLVESGGGLVQAGGSLRLSCAASGRSFIENVKGWYRQAPGKERELVAAIRSAGTTYNADSVKGRFTISRDNAKNTVYLQMNSLKPEDTAVDYCAATNRYYWSYFYQSKYGYWGQGTQVTVSS	low polyreactivity
QVQLVESGGGLVQAGGSLRLSCAASGRSFPAYAMGWYRQAPGKERELVAAISQSGGSTYYADSVKGRFTISRDNAKNTVYLQMNSLKPEDTAVYYCAAGWYVSYYWYDYWGQGTQVTVSS	high polyreactivity
QVQLVESGGGLVQAGGSLRLSCAASGRSFPTYAMGWYRQAPGKERELVATISWSGGRTYYADSVKGRFTISRDNAKNTVYLLMNSLKPEDTAVYYCNAYISYRWYRWEYEYWGQGTQVTVSS	low polyreactivity
QVQLVESGGGLVQAGGSLRLSCAASGRSFPWYGMGWYRQAPGKERELVAAISRTGGNTYYADSVKGRFTISRDNAKNTVYLQMNSLKPEDTAVYYCIAGYYSNRSYFYDYGYWGQGTQVTVSS	high polyreactivity
QVQLVESGGGLVQAGGSLRLSCAASGRSFQGYAMGWYRKAPGKERELVAAISWSGGSTYYADSVKGRFTISRDNAKNTVYLQMNSLKPEDTAVYYCAASYDIYGNYRRYDYWGQGTQVTVSS	high polyreactivity
QVQLVESGGGLVQAGGSLRLSCAASGRSFRRYAMGWYRQAPVKDRELVATNTSNGGSTYYADSVKGRFTISRDNAMHTVDFQLNSLKPEDTAVYYCARDLTYYRSRYDYWGQGTQVTVSS	high polyreactivity
QVQLVESGGGLVQAGGSLRLSCAASGRSFSKYAMGWYRQAPGKERDLVAGISRSGGSTYYADSVKGRFTISRDNAKNSVYLQMNSLKPEDTAVYYGAAVRRDYDDVYTEYWGQGTQVNVSS	high polyreactivity
QVQLVESGGGLVQAGGSLRLSCAASGRSFSLYAMGWYRQAPGKERELVASITGSSTYYADSVKGRFTISRDNAKNTVYLQMNSLKPEDTAVYYCNARTSAGAGVDYWGQGTQVTVSS	low polyreactivity
